From article PMC9349299

Key:
[1] = molecular target: AvmM (Streptomyces sp. TP-A0867); experiment: crystal structure; sitting drop, 22 °C; protein 10 mg/mL in 50 mM NaCl, 20 mM Tris pH 8.0; reservoir 0.2 M magnesium acetate, 0.1 M sodium cacodylate pH 6.5, 20% PEG 8000; apo AvmM at 2.09 Å and AvmM with product 2 at 2.5 Å
[2] = molecular target: AvmM (Streptomyces sp. TP-A0867); experiment: SEC; HiLoad 16/600 Superdex 200 pg, 50 mM NaCl, 20 mM Tris pH 8.0, 4 °C, 1 mL/min; calibrated with cytochrome c, ovalbumin, aldolase, ferritin

stoichiometry N [1]: 3
stoichiometry N [2]: 3
Substance: AvmM (enzyme)
